Patent US20080014199A1, “Assessing Cancer And Vimentin” (MAYO FOUNDATION FOR MEDICAL EDUCATION AND RESEARCH, priority 2006, published 2008)
“Also recorded” adds a separate entry of the source. No end group written: not given here. fluorescein = fluorescein label conjugated to the peptide

B1: phage displaying the FPSAHFL (SEQ ID NO:2) polypeptide (peptide, not shown: large carriers)
peptide: FPSAHFL
modifications: also: displayed on M13 phage coat protein, fusion end not given here
notes: 7-mer selected from the Ph.D.-7 phage display library

Columns and labels:
vimentin [1] = molecular target: T1, vimentin (Homo sapiens, UniProt P08670); test: Immunoprecipitation of CLL B cell lysates with FPSAHFL phage and anti-phage antibodies, Western blotting, nano LC-MS/MS target identification; type: binding
T1 construct: CLL B cell lysates were immunoprecipitated using phage and anti-phage antibodies; endogenous in cells; host or cells: primary CLL B cells (patient leukemic cells), total protein lysate
T1 sequence (P08670 whole entry): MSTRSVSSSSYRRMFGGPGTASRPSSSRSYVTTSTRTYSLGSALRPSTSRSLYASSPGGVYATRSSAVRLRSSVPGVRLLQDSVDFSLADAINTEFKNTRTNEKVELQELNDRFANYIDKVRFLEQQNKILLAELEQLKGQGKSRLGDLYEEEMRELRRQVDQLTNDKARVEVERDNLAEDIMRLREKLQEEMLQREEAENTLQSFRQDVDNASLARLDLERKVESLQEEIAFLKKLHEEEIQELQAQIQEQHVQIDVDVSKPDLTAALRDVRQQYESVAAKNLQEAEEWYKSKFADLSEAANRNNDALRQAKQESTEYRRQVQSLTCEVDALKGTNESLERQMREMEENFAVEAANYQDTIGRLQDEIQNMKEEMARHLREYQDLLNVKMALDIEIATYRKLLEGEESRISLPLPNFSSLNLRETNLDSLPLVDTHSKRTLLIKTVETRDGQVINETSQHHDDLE
Procedure: (§1) To identify FPSAHFL (SEQ ID NO:2) polypeptide targets, CLL B cell lysates were immunoprecipitated using phage and anti-phage antibodies. Total protein extracts were prepared from primary leukemic cells (see, Example 1) by lysing cells in cold lysis buffer (30 mM Tris-HCl, pH 7.4; 150 mM NaCl; 1% glycerol (v/v); 1% Triton X-100 (v/v); and 2 mM EDTA) in the presence of phosphatase inhibitors (100 mM NaF, 10 mM Na4P2O4, 1 mM Na2VO4), and protease inhibitors (10 μg/mL Leupeptin, 10 μg/mL Pepstatin A, and 1 mM phenylmethylsulfonyl fluoride (PMSF)). After centrifugation to remove cell debris, protein extracts were immunoprecipitated overnight at 4° C. on a rotator with phages displaying FPSAHFL (SEQ ID NO:2; 10^11 pfu[…]), anti-M13 phage antibodies and 40 μL goat anti-mouse IgG-sepharose 4B beads (Zymed, San Francisco, Calif., USA), according to the manufacturer's instructions. The beads were washed three times with lysis buffer, resuspended into a loading buffer and subjected to SDS-PAGE (5%-15%) under reducing conditions. The polypeptide was visualized by Coomassie blue or silver staining. To confirm that the immunoprecipitated polypeptide was indeed the target for FPSAHFL (SEQ ID NO:2) phage, Western blotting was performed using staining with FPSAHFL (SEQ ID NO:2) phage and anti-M13 phage antibodies. Non-displaying phage were used as a control. […]

CLL B cells = test: Immunofluorescence staining of CLL B cell cytospins with FPSAHFL-displaying phage or fluorescein labelled polypeptide; type: binding, human; settings: phage plus fluorescent anti-phage antibodies or fluorescein-labelled polypeptide
Text: FIG. 2 contains fluorescence photomicrographs showing binding of the FPSAHFL (SEQ ID NO:2) polypeptide to CLL B cells. CLL B cells were placed on slides by cytospining and were stained with phages displaying the FPSAHFL (SEQ ID NO:2) polypeptide and FITC labeled anti-phage antibody (A and D) or were stained directly with fluorescein conjugated FPSAHFL (SEQ ID NO:2) polypeptide (B, C, and E).
Binding of the FPSAHFL (SEQ ID NO:2) polypeptide to CLL B cells was investigated using immunofluorescence. Cytospins of 10^5 CLL B cells (see, Example 1) were prepared and incubated for 20 minutes at room temperature with phages displaying FPSAHFL (SEQ ID NO:2; 10^8 pfu). The cells were then washed twice with PBS and incubated for 15 minutes at room temperature with 10 μg of mouse anti-M13 phage antibodies (New England Biolabs). The cells were stained for 15 minutes at room temperature with 2 μg of fluorescein isothiocyanate (FITC) labelled secondary anti-mouse antibodies (Vector Laboratories Inc, Burlingame, Calif., USA). Non-displaying M13 phages were used as a control (New England Biolabs) and co-staining with 4′-6-Diamidino-2-phenylindole (DAPI) was used to identify cells. […] The purity of the polypeptide preparation (>99.9%) was assessed by mass spectrometry and high performance liquid chromatography using internal standards.

unmutated CLL B cells = test: Subtraction biopanning with phage display polypeptide library on unmutated versus mutated CLL B cells; type: binding, human
Procedure: Phages displaying IgVH mutational status-specific polypeptides were isolated. 10^11 plaque forming units (pfu) of PDPL Ph.D.-7 (New England Biolabs, Ipswich, Mass.) were added to 10^6 unmutated CLL B cells suspended in 1 mL of phosphate buffered saline (PBS) containing 0.5% bovine serum albumin (BSA), and the mixture was incubated at room temperature for 1 hour with gentle rocking (FIG. 1A). The cells with attached phages were spun down and washed three times with PBS containing 0.5% BSA (FIG. 1B). The attached phages were then eluted for 20 minutes by adding 1 mL of elution buffer (1% BSA, 0.2 M Glycine-HCl, pH 2.2; FIG. 1C). The elution buffer was neutralized with 0.15 mL of 1 M Tris-HCl (pH 9.1). The eluted phages were precipitated by adding 0.2 mL of a solution containing 20% (w/v) polyethylene glycol 8,000 (Sigma, Saint Louis, Mo.) and 2.5 M NaCl. The eluted phages were then added to a suspension of 10^6 mutated CLL B cells in PBS with 0.5% BSA and incubated with gentle rocking for 40 minutes. The cells with bound phages (FIG. 1D) were spun down, leaving the supernatant containing unbound phages. This latter step was repeated four times to ensure complete subtraction of phages binding to mutated CLL B cells. The unbound phages in the supernatant were titered, amplified and purified as described elsewhere (Nowakowski et al., Stem Cells, 22(6):1030-8 (2004); FIG. 1E). […]

vimentin [2] = molecular target: T2, vimentin (human (CLL patients), UniProt P08670 2-466); test: immunoprecipitation from CLL B cell lysate with phage and anti-M13 antibodies; Western blot with phage
T2 construct: Endogenous protein from total protein extracts of CLL patient cells; It ran on SDS-PAGE under reducing conditions for the Western blot; also called 56 kDa band; immunoprecipitated polypeptide
T2 sequence (P08670 2-466 limits assumed): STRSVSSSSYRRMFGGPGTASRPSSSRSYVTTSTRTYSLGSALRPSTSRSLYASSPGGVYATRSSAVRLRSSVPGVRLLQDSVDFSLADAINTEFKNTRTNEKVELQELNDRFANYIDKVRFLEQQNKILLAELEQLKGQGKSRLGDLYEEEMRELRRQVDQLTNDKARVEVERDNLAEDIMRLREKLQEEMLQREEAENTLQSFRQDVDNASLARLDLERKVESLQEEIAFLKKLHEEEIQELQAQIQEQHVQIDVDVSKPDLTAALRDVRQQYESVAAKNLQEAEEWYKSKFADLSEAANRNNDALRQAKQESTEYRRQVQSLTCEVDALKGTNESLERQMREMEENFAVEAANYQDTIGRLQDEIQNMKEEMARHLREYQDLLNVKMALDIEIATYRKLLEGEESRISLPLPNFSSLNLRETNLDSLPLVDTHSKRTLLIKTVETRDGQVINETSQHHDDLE
Procedure: as §1, with “Na₄P₂O₄,” for “Na4P2O4,”, “Na₂VO₄),” for “Na2VO4),”, “10¹¹” for “10^11”

| Molecule | Target of the polypeptide identified (vimentin [1]; in-gel trypsin digestion, nano LC-MS/MS, Mascot and Sequest) | Band immunoprecipitated from CLL polypeptides (vimentin [1]; phage bearing the polypeptide and anti-phage antibodies, binding confirmed by Western blotting) | Cellular localization of binding (pattern of staining) (CLL B cells) | Percentage of sequenced single phage colonies encoding the polypeptide (unmutated CLL B cells; fourth round of biopanning) | Percentage of sequenced single phage colonies encoding the polypeptide (unmutated CLL B cells; third round of subtraction biopanning) | binding result (vimentin [2]) |
| --- | --- | --- | --- | --- | --- | --- |
| FPSAHFL (fluorescein-FPSAHFL) [also synthesized and fluorescein labelled at the N terminus] | vimentin | 56 kDa | localized within the cytoplasm; also recorded: cytoplasmic pattern of staining | 34% | 20% |  |
| B1 |  |  |  |  |  | binds |
